# In patent publication US20140086916A1 (Merck Sharp & Dohme, published 2014):
# Where two headings read alike, the source gives them in different places.
# T1: FcγRIIa (Pichia pastoris produced) (UniProt P12318 34-217, limits assumed)
# T1 construct: also called CD32A
# T1 sequence (looked up): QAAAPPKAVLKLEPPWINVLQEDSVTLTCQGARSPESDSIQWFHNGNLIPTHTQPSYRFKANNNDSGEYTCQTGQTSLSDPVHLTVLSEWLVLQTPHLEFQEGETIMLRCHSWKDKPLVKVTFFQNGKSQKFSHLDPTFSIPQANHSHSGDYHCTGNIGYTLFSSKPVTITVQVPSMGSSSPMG
# T2: FcγRIIb (Pichia pastoris produced) (UniProt P31994 43-217, limits assumed)
# T2 construct: also called FcgRIIB; CD32B
# T2 sequence (looked up): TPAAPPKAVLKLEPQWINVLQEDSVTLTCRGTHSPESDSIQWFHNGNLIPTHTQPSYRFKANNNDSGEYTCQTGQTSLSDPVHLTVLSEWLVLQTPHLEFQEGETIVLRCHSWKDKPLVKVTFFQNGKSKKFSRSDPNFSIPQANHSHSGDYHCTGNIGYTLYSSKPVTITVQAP
# T3: FcγRIIA H (UniProt P12318 34-217, limits assumed)
# T3 construct: also called FcgRIIA H
# T3 sequence (looked up): T1 sequence (looked up)
# B1: 1F11 wildtype (parent) humanized anti-PCSK9 monoclonal IgG1 antibody (antibody)
# heavy: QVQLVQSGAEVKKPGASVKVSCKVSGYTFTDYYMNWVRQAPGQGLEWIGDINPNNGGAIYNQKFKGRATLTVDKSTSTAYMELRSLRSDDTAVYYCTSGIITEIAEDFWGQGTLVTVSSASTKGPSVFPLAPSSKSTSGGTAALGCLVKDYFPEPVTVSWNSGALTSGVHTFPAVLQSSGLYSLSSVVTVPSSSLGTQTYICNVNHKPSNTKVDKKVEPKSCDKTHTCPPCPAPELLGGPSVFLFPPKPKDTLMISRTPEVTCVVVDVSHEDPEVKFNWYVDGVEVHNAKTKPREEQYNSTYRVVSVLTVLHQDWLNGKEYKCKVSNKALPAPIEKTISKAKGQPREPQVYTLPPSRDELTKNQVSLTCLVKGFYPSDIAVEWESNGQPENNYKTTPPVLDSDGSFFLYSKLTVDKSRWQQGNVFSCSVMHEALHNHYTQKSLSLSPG
# light: DIQMTQSPSSLSASVGDRVTITCKASQNVGTNVVWYQQKPGKAPKALIHSASYRYSGVPSRFSGSGSGTDFTLTISSLQPEDFATYYCQQYKTYPYTFGQGTKVEIKRTVAAPSVFIFPPSDEQLKSGTASVVCLLNNFYPREAKVQWKVDNALQSGNSQESVTEQDSKDSTYSLSSTLTLSKADYEKHKVYACEVTHQGLSSPVTKSFNRGEC
# notes: Produced in glycoengineered Pichia pastoris GFI5.0 (strain YGLY21351); also called 1F11 IgG1 GS5.0; YGLY21351
# B2: 1F11 IgG1 F243A/V264A double mutein anti-PCSK9 antibody (antibody)
# heavy: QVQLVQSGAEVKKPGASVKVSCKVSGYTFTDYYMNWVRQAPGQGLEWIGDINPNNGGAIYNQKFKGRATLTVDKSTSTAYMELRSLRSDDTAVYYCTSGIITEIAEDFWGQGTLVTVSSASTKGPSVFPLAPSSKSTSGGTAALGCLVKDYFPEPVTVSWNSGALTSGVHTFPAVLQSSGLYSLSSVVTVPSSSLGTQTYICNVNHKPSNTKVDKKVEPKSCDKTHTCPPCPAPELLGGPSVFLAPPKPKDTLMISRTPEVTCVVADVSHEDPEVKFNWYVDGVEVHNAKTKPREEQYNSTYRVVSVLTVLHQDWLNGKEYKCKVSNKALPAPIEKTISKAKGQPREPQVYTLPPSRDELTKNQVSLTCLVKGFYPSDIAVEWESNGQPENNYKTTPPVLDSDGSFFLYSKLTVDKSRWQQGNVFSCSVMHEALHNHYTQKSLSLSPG
# light: B1 light
# notes: sialylated N-glycans; also called 1F11 DM; YGLY23258
# How the values were obtained:
# [1] = molecular target: T1, FcγRIIa (Pichia pastoris produced); test: ELISA-type plate assay, FcγR coated, antibody dimerized with AP-conjugated goat anti-human IgG F(ab')2, RFU readout
# Procedure: (§1) Fcγ receptor binding assays were carried out as described (Shields, et al. (2001) J. Biol. Chem. 276:6591-6604) with minor modifications. High protein binding 96-well plates (Corning Costar) were coated with 100 μL per well of Fcγ receptor solutions in PBS at the following concentrations: 1 μg/mL for both FcγRI (R&D Systems) and FcγRIIa (Pichia pastoris produced), 2 μg/mL for FcγRIIb (P. pastoris produced), 0.8 μg/mL for FcγRIIIa-F158, and 0.4 μg/mL for FcγRIIIa-V158 (both P. pastoris produced). All Pichia pastoris produced receptors were expressed and purified as described (Li, et al. (2006) Nature Biotechnology 24:210-215). Monomeric antibody samples added to the FcγRI plate were serially diluted in assay diluent (1×PBS, 1% BSA, and 0.05% Tween20) and 100 μL, per well was added to the plate. Antibody samples prepared for the remaining receptors require a one hour dimerization step with half molar ratio of goat anti-human IgG F(ab′)2 F(ab′)2 that is conjugated with alkaline phosphatase for detection. These dimerized F(ab′)2/antibody complexes were also serially diluted and 100 μL per well were added to the remaining receptor plates and all plates were incubated for one hour at room temperature. FcγRI bound sample antibody was detected using the same goat anti-human IgG F(ab′)2 alkaline phosphatase conjugated F(ab′)2. Sample antibody binding was quantified by measuring excitation at 340 nm and emission at 465 nm after 18 hour incubation with SuperPhos, 4-MUP Fluorescence AP Substrate Detection System (Virolabs).
# [2] = molecular target: T2, FcγRIIb (Pichia pastoris produced); test: as above
# Procedure: as §1
# [3] = molecular target: T4, FcγRIIIa-F158 (Pichia pastoris produced) (UniProt P08637 17-208, limits assumed); test: as above
# T4 construct: also called FcγRIIIA LF; FcgRIIIA LF
# Procedure: as §1
# [4] = molecular target: T4, FcγRIIIa-F158 (Pichia pastoris produced); test: as above; remark: listed apart in the source
# Procedure: as §1
# [5] = molecular target: T3, FcγRIIA H; test: fold change of the Table 12 affinities (reference row)
# Procedure: as §1
# [6] = molecular target: T2, FcγRIIb (Pichia pastoris produced); test: as above
# Procedure: as §1
# [7] = molecular target: T5, FcγRIIIa-V158 (Pichia pastoris produced) (UniProt P08637 17-208, limits assumed); test: as above
# T5 construct: also called FcγRIIIA LV; FcgRIIIA LV
# Procedure: as §1
# [8] = molecular target: T4, FcγRIIIa-F158 (Pichia pastoris produced); test: as above
# Procedure: as §1
# [9] = molecular target: T2, FcγRIIb (Pichia pastoris produced); test: ELISA-type plate assay, FcγR coated, antibody dimerized with AP-conjugated goat anti-human IgG F(ab')2, RFU readout; remark: listed apart in the source
# Procedure: as §1
# [10] = molecular target: T4, FcγRIIIa-F158 (Pichia pastoris produced); test: as above; remark: listed apart in the source
# Procedure: as §1
# [11] = molecular target: T2, FcγRIIb (Pichia pastoris produced); test: as above; remark: listed apart in the source
# Procedure: as §1
# [12] = molecular target: T4, FcγRIIIa-F158 (Pichia pastoris produced); test: as above; remark: listed apart in the source
# Procedure: as §1
# [13] = molecular target: T2, FcγRIIb (Pichia pastoris produced); test: fold change of the Table 12 affinities; Table 13 fold change computed from the Table 12 affinities
# Procedure: as §1, with “These dimerized F(ab′)2/antibody complexes were also serially diluted and 100 μL per well were added to the remaining receptor plates and all plates were incubated for one hour at room temperature.” left out
# [14] = molecular target: T2, FcγRIIb (Pichia pastoris produced); test: FcγR affinity assay 'as described in Example 7', n = 3; printed as Affinity (nM) ± STDEV; Table 12 affinity (nM) assay, n = 3; not the dimer ELISA of Tables 3-7
# [15] = molecular target: T5, FcγRIIIa-V158 (Pichia pastoris produced); test: summary of the FcγR ELISAs; Table 8 summary: range of fold decrease over the ELISA experiments
# Procedure: as §1, with “These dimerized F(ab′)2/antibody complexes were also serially diluted and 100 μL per well were added to the remaining receptor plates and all plates were incubated for one hour at room temperature.” left out
# [16] = molecular target: T4, FcγRIIIa-F158 (Pichia pastoris produced); test: as above
# Procedure: as §1, with “These dimerized F(ab′)2/antibody complexes were also serially diluted and 100 μL per well were added to the remaining receptor plates and all plates were incubated for one hour at room temperature.” left out
# T4 sequence (P08637 17-208 limits assumed): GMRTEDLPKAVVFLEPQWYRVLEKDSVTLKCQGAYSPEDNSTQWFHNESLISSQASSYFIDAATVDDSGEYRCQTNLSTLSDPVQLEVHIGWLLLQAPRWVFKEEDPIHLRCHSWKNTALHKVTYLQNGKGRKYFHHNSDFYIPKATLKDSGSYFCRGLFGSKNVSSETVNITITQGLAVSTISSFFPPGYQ
# T5 sequence (P08637 17-208 F176V limits assumed): as the sequence (P08637 17-208 limits assumed) above, with F160V counted along it
Binder,EC50 (read off the curve) [1],EC50 (read off the curve) [2],EC50 (read off the curve) [3],EC50 (read off the curve) [4],fold change in affinity vs 1F11 IgG1 GS5.0 [5],fold change in affinity vs 1F11 IgG1 GS5.0 [6],fold change in affinity vs 1F11 IgG1 GS5.0 [7],fold change in affinity vs 1F11 IgG1 GS5.0 [8],EC50 (read off the curve) [9],EC50 (read off the curve) [10],EC50 (read off the curve) [11],EC50 (read off the curve) [12],fold change in affinity vs 1F11 IgG1 GS5.0 [13],Kd [14],decreased affinity fold vs wildtype parent antibody produced in GS 5.0 [15],decreased affinity fold vs wildtype parent antibody produced in GS 5.0 [16]
B1,~0.03 µg/mL,~0.2 µg/mL,~0.02 µg/mL,~0.02 µg/mL,1 fold,1 fold,1 fold,1 fold,~0.4 µg/mL,~0.02 µg/mL,~0.2 µg/mL,~0.02 µg/mL,,,,
B2,,,,,,,,,,,,,3 fold,1690 nM,2 to 6 fold,8 to 60 fold
